# Values of other authors, collected in patent US20170319567A1, “Use of CCR3-Inhibitors” (Alkahest, Inc., priority 2013, published 2017).
# Test system: eosinophils
# Conditions: EoE patients, anti IL-5 therapy
molecule,measurement,value
"Mepolizumab: anti IL-5 antibody (antibody, chains of the INN, looked up, V domains shown) VH: QVTLRESGPALVKPTQTLTLTCTVSGFSLTSYSVHWVRQPPGKGLEWLGVIWASGGTDYNSALMSRLSISKDTSRNQVVLTMTNMDPVDTATYYCARDPPSSLLRLDYWGRGTPVTVSS VL: DIVMTQSPDSLAVSLGERATINCKSSQSLLNSGNQKNYLAWYQQKPGQPPKLLIYGASTRESGVPDRFSGSGSGTDFTLTISSLQAEDVAVYYCQNVHSFPFTFGGGTKLEIK",lowering of peripheral eosinophils,5 fold
same,reduction in biopsy eosinophils,2 fold
